Measurements published in the supplement of paper PMC6757056.
± gives the standard deviation of the averaged measurements.

B1: library; a variant is named by its letters at N, in order (parent)
chain: GCUGUCACCGGUGCUUGGUACGUUAUAUUCAGCCGGUCUGAUGAGUCUNNNNNNAGACGAAACAGC

Legend:
(6R,S)-folinic acid [1] = variants of: B1; experiment: normalized RNA/DNA level without ligand (relative to sTRSVctl = 100) (log10 (% of sTRSVctl)); HEK293T overexpressing SLC46A1; higher = less ribozyme self-cleavage, higher mRNA level; details: without (6R,S)-folinic acid; ligand present: no
Summary of the method: (§1)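 Ribozyme switch library plasmids with mCherry reporters (eGFP in certain ligand experiments) went into HEK293T cells at 4 µg per 6-well well. Where ligand was used, it was applied 1 h before transfection, and total RNA was extracted with EDTA 72 h later for reverse transcription, amplification, barcoding and sequencing. RNA level is the RNA-to-DNA read ratio normalized to a spiked-in non-cleaving sequence or to the leading sequences, then scaled and log-transformed. Scaling was ×100 with log10, the leading set comprised 25 sequences, and the cutoff was ≥100 DNA reads.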

(6R,S)-folinic acid [2] = variants of: B1; experiment: normalized RNA/DNA level with ligand (relative to sTRSVctl = 100) (log10 (% of sTRSVctl)); HEK293T overexpressing SLC46A1; ligand concentration (+) RNA-Seq: 6 mM; higher = less ribozyme self-cleavage, higher mRNA level; details: with (6R,S)-folinic acid; ligand present: yes
Summary of the method: as §1

Row | Variant | normalized RNA/DNA level without ligand (log10) ((6R,S)-folinic acid [1]) | normalized RNA/DNA level with ligand (log10) ((6R,S)-folinic acid [2])
1 | GCUGUCACCGGUGCUUGGUACGUUAUAUUCAGCCGGUCUGAUGAGUCUAUGAACAGACGAAACAGC | 1.95 ± 0.004 | 1.97 ± 0.048
2 | GCUGUCACCGGUGCUUGGUACGUUAUAUUCAGCCGGUCUGAUGAGUCUGUGAACAGACGAAACAGC | 1.908 ± 0.0094 | 2.012 ± 0.0064
3 | GCUGUCACCGGUGCUUGGUACGUUAUAUUCAGCCGGUCUGAUGAGUCUUUCUGAAGACGAAACAGC | 2.016 ± 0.012 | 2.032 ± 0.0073
4 | GCUGUCACCGGUGCUUGGUACGUUAUAUUCAGCCGGUCUGAUGAGUCUUUCUGUAGACGAAACAGC | 2.03 ± 0.023 | 2.047 ± 0.0083
5 | GCUGUCACCGGUGCUUGGUACGUUAUAUUCAGCCGGUCUGAUGAGUCUUUGAACAGACGAAACAGC | 2 ± 0.023 | 2.025 ± 0.016
6 | GCUGUCACCGGUGCUUGGUACGUUAUAUUCAGCCGGUCUGAUGAGUCUUUGAAUAGACGAAACAGC | 1.955 ± 0.0032 | 2.01 ± 0.025
7 | GCUGUCACCGGUGCUUGGUACGUUAUAUUCAGCCGGUCUGAUGAGUCUUUGACGAGACGAAACAGC | 1.866 ± 0.0091 | 1.996 ± 0.019
8 | GCUGUCACCGGUGCUUGGUACGUUAUAUUCAGCCGGUCUGAUGAGUCUUUGACCAGACGAAACAGC | 2.04 ± 0.0038 | 2.04 ± 0.032
9 | GCUGUCACCGGUGCUUGGUACGUUAUAUUCAGCCGGUCUGAUGAGUCUUUGACUAGACGAAACAGC | 2.0063 ± 0.0015 | 2.04 ± 0.053
10 | GCUGUCACCGGUGCUUGGUACGUUAUAUUCAGCCGGUCUGAUGAGUCUUUGACAAGACGAAACAGC | 1.956 ± 0.018 | 1.98 ± 0.021
11 | GCUGUCACCGGUGCUUGGUACGUUAUAUUCAGCCGGUCUGAUGAGUCUCUCUGCAGACGAAACAGC | 2.02 ± 0.025 | 2.03 ± 0.027
12 | GCUGUCACCGGUGCUUGGUACGUUAUAUUCAGCCGGUCUGAUGAGUCUCUCUGGAGACGAAACAGC | 2.04 ± 0.021 | 2.04 ± 0.028
13 | GCUGUCACCGGUGCUUGGUACGUUAUAUUCAGCCGGUCUGAUGAGUCUCUCUGUAGACGAAACAGC | 2.0266 ± 0.0016 | 2.037 ± 0.0081
14 | GCUGUCACCGGUGCUUGGUACGUUAUAUUCAGCCGGUCUGAUGAGUCUGUCUGUAGACGAAACAGC | 2.016 ± 0.0056 | 2.06 ± 0.027
15 | GCUGUCACCGGUGCUUGGUACGUUAUAUUCAGCCGGUCUGAUGAGUCUGUGAGCAGACGAAACAGC | 1.74 ± 0.024 | 1.962 ± 0.011
16 | GCUGUCACCGGUGCUUGGUACGUUAUAUUCAGCCGGUCUGAUGAGUCUCUGAAGAGACGAAACAGC | 1.881 ± 0.0031 | 1.995 ± 0.0079
17 | GCUGUCACCGGUGCUUGGUACGUUAUAUUCAGCCGGUCUGAUGAGUCUCUGAAUAGACGAAACAGC | 1.96 ± 0.003 | 1.99 ± 0.045
18 | GCUGUCACCGGUGCUUGGUACGUUAUAUUCAGCCGGUCUGAUGAGUCUCUGAACAGACGAAACAGC | 1.99 ± 0.035 | 1.99 ± 0.024
19 | GCUGUCACCGGUGCUUGGUACGUUAUAUUCAGCCGGUCUGAUGAGUCUAUGACCAGACGAAACAGC | 2.046 ± 0.0045 | 2.024 ± 0.014
20 | GCUGUCACCGGUGCUUGGUACGUUAUAUUCAGCCGGUCUGAUGAGUCUGUCUUCAGACGAAACAGC | 2.073 ± 0.0035 | 2.027 ± 0.0036
21 | GCUGUCACCGGUGCUUGGUACGUUAUAUUCAGCCGGUCUGAUGAGUCUGUCUUAAGACGAAACAGC | 2.03 ± 0.025 | 2.034 ± 0.013

Row | Variant | normalized RNA/DNA level without ligand (log10) ((6R,S)-folinic acid [1]) | normalized RNA/DNA level with ligand (log10) ((6R,S)-folinic acid [2])
22 | GCUGUCACCGGUGCUUGGUACGUUAUAUUCAGCCGGUCUGAUGAGUCUGUCUUUAGACGAAACAGC | 2.047 ± 0.0022 | 2.04 ± 0.064
23 | GCUGUCACCGGUGCUUGGUACGUUAUAUUCAGCCGGUCUGAUGAGUCUAUCUUCAGACGAAACAGC | 2.07 ± 0.022 | 2.05 ± 0.045
24 | GCUGUCACCGGUGCUUGGUACGUUAUAUUCAGCCGGUCUGAUGAGUCUAUCUUUAGACGAAACAGC | 2.07 ± 0.025 | 2.087 ± 0.017
25 | GCUGUCACCGGUGCUUGGUACGUUAUAUUCAGCCGGUCUGAUGAGUCUCUGAGCAGACGAAACAGC | 2.0258 ± 0.00095 | 2.01 ± 0.019
26 | GCUGUCACCGGUGCUUGGUACGUUAUAUUCAGCCGGUCUGAUGAGUCUCUGACCAGACGAAACAGC | 2.05 ± 0.017 | 2.01 ± 0.033
27 | GCUGUCACCGGUGCUUGGUACGUUAUAUUCAGCCGGUCUGAUGAGUCUCUGACAAGACGAAACAGC | 1.996 ± 0.01 | 2.03 ± 0.022
28 | GCUGUCACCGGUGCUUGGUACGUUAUAUUCAGCCGGUCUGAUGAGUCUCUGACGAGACGAAACAGC | 2 ± 0.006 | 2.046 ± 0.02
29 | GCUGUCACCGGUGCUUGGUACGUUAUAUUCAGCCGGUCUGAUGAGUCUCUGACUAGACGAAACAGC | 2.028 ± 0.004 | 2 ± 0.023
30 | GCUGUCACCGGUGCUUGGUACGUUAUAUUCAGCCGGUCUGAUGAGUCUGUGACGAGACGAAACAGC | 1.95 ± 0.017 | 2 ± 0.032
31 | GCUGUCACCGGUGCUUGGUACGUUAUAUUCAGCCGGUCUGAUGAGUCUGUGACUAGACGAAACAGC | 2.029 ± 0.0025 | 2.04 ± 0.041
32 | GCUGUCACCGGUGCUUGGUACGUUAUAUUCAGCCGGUCUGAUGAGUCUCUCUUCAGACGAAACAGC | 2.063 ± 0.0046 | 2.01 ± 0.024
33 | GCUGUCACCGGUGCUUGGUACGUUAUAUUCAGCCGGUCUGAUGAGUCUCUCUUUAGACGAAACAGC | 2.013 ± 0.011 | 2.02 ± 0.041
34 | GCUGUCACCGGUGCUUGGUACGUUAUAUUCAGCCGGUCUGAUGAGUCUCUCUUGAGACGAAACAGC | 2.04 ± 0.021 | 2.03 ± 0.028
35 | GCUGUCACCGGUGCUUGGUACGUUAUAUUCAGCCGGUCUGAUGAGUCUUUCUUAAGACGAAACAGC | 2.032 ± 0.02 | 2.02 ± 0.081
36 | GCUGUCACCGGUGCUUGGUACGUUAUAUUCAGCCGGUCUGAUGAGUCUUUCUUGAGACGAAACAGC | 1.914 ± 0.0095 | 2.02 ± 0.023
37 | GCUGUCACCGGUGCUUGGUACGUUAUAUUCAGCCGGUCUGAUGAGUCUUUCUUCAGACGAAACAGC | 2.05 ± 0.028 | 1.996 ± 0.012
38 | GCUGUCACCGGUGCUUGGUACGUUAUAUUCAGCCGGUCUGAUGAGUCUUUCUUUAGACGAAACAGC | 2.047 ± 0.0094 | 2.04 ± 0.035
39 | GCUGUCACCGGUGCUUGGUACGUUAUAUUCAGCCGGUCUGAUGAGUCUUUGAGCAGACGAAACAGC | 2.006 ± 0.005 | 2.05 ± 0.049
40 | GCUGUCACCGGUGCUUGGUACGUUAUAUUCAGCCGGUCUGAUGAGUCUAUCUGCAGACGAAACAGC | 2.06 ± 0.028 | 2.05 ± 0.052
41 | GCUGUCACCGGUGCUUGGUACGUUAUAUUCAGCCGGUCUGAUGAGUCUAUCUGUAGACGAAACAGC | 2.004 ± 0.0032 | 2.06 ± 0.056
